Key:
HLA-B*07:02 [1] = assay: IEDB peptide-MHC binding, purified MHC/competitive/radioactivity; filed as Kd, often an IC50 or EC50 that approximates it; ≥ and ≤ were set here for values at or beyond the usual limits of such assays
HLA-A*02:01 [2] = assay: IEDB peptide-MHC binding, purified MHC/competitive/fluorescence; ≥ and ≤ were set here for values at or beyond the usual limits of such assays
HLA-A*24:02 = assay: as above
HLA-A*68:02 = assay: IEDB peptide-MHC binding, purified MHC/competitive/radioactivity; filed as Kd, often an IC50 or EC50 that approximates it; ≥ and ≤ were set here for values at or beyond the usual limits of such assays
HLA-B*53:01 = assay: as above; settings: source organism: Dengue virus 3 Martinique/1243/1999
HLA-B*35:01 = assay: as above
HLA-B*58:01 = assay: IEDB peptide-MHC binding, purified MHC/direct/fluorescence; filed as Kd, often an IC50 or EC50 that approximates it; ≥ and ≤ were set here for values at or beyond the usual limits of such assays
HLA-B*57:01 = assay: as above; settings: source organism: Giardia lamblia ATCC 50803
HLA-B*15:01 = assay: as above
HLA-A*02:01 [3] = assay: as above
HLA-B*40:01 = assay: as above
HLA-A*69:01 = assay: as above
HLA-B*08:01 [4] = assay: as above
HLA-A*01:01 = assay: as above
HLA-B*27:05 = assay: as above
HLA-A*03:01 = assay: as above
HLA-B*07:02 [5] = assay: as above
HLA-B*44:02 = assay: as above; settings: source organism: Escherichia coli O157:H7
HLA-A*26:01 = assay: as above
HLA-A*11:01 = assay: as above
HLA-A*31:01 = assay: as above; settings: source organism: Escherichia coli O157:H7
HLA-B*08:01 [6] = assay: IEDB peptide-MHC binding, purified MHC/competitive/radioactivity; filed as Kd, often an IC50 or EC50 that approximates it; ≥ and ≤ were set here for values at or beyond the usual limits of such assays; settings: source organism: Dengue virus 2 Jamaica/1409/1983
HLA-B*51:01 = assay: as above
HLA-A*02:06 = assay: as above; settings: source organism: Dengue virus 3 Martinique/1243/1999
HLA-A*30:02 = assay: as above; settings: source organism: Dengue virus 1 Brazil/97-11/1997
[7] = source organism: Dengue virus 1 Brazil/97-11/1997
[8] = source organism: Vaccinia virus WR
[9] = source organism: Sudan ebolavirus
[10] = source organism: Dengue virus 4 Philippines/H241/1956
[11] = source organism: Dengue virus 3 Martinique/1243/1999
[12] = source organism: Dengue virus 2 Jamaica/1409/1983
[13] = source organism: Escherichia coli O157:H7
[14] = source organism: Vaccinia virus
[15] = source organism: Zaire ebolavirus
[16] = source organism: Vaccinia virus Copenhagen
[17] = source organism: Escherichia coli

Sequence: KPSGSASSM
- Kd (HLA-B*07:02 [1]; [7]): 0.00488 µM

Sequence: LFTEQAFYT
- IC50 (HLA-A*02:01 [2]; [8]): 68.1 µM
- IC50 (HLA-A*24:02; [8]): 55 µM

Sequence: LITSTVTGI
- IC50 (HLA-A*02:01 [2]; [9]): 1.64 µM
- IC50 (HLA-A*24:02; [9]): 17.9 µM

Sequence: LVMLLVHYA
- Kd (HLA-A*68:02; [10]): 0.369 µM

Sequence: MAVLFVVTLI
- Kd (HLA-A*68:02; [10]): 0.533 µM

Sequence: MPGTFQTTTG
- Kd (HLA-B*53:01): 0.427 µM
- Kd (HLA-B*35:01; [11]): 0.157 µM

Sequence: MPTVIEHLER
- Kd (HLA-B*53:01): 7.05 µM
- Kd (HLA-B*35:01; [11]): 0.871 µM

Sequence: MVSILASSLL
- Kd (HLA-A*68:02; [12]): 0.0447 µM

Sequence: NADIGEWAF
- IC50 (HLA-A*24:02; [9]): 55.5 µM

Sequence: PTAPSDGGM
- Kd (HLA-B*58:01; source organism: Giardia lamblia ATCC 50803): 9 µM
- Kd (HLA-B*57:01): ≥ 20 µM

Sequence: QSPPIREAV
- IC50 (HLA-A*02:01 [2]; [9]): 38.3 µM

Sequence: RFDEAIINY
- Kd (HLA-B*15:01; [13]): ≥ 20 µM
- Kd (HLA-A*02:01 [3]; [13]): ≥ 20 µM
- Kd (HLA-B*40:01; [13]): ≥ 10 µM
- Kd (HLA-A*69:01; [13]): ≥ 20 µM
- Kd (HLA-B*58:01; [13]): ≥ 20 µM
- Kd (HLA-B*08:01 [4]; [13]): ≥ 20 µM
- Kd (HLA-A*01:01; [13]): ≥ 20 µM
- Kd (HLA-B*27:05; [13]): ≥ 20 µM
- Kd (HLA-A*03:01; [13]): ≥ 20 µM
- Kd (HLA-B*07:02 [5]; [13]): ≥ 20 µM
- Kd (HLA-B*44:02): ≥ 20 µM
- Kd (HLA-A*26:01; [13]): ≥ 20 µM
- Kd (HLA-A*11:01; [13]): ≥ 20 µM
- Kd (HLA-A*31:01): ≥ 20 µM

Sequence: RLEEEINNQ
- IC50 (HLA-A*02:01 [2]; [14]): ≥ 195 µM
- IC50 (HLA-A*24:02; [14]): 32.6 µM

Sequence: RLRMDKLQL
- Kd (HLA-B*08:01 [6]): 0.175 µM
- Kd (HLA-B*07:02 [1]; [12]): 0.149 µM

Sequence: SLEEEYPPW
- IC50 (HLA-A*02:01 [2]; [15]): ≥ 214 µM
- IC50 (HLA-A*24:02; [15]): ≥ 179 µM

Sequence: SPARLASAI
- Kd (HLA-B*51:01; [10]): 0.532 µM
- Kd (HLA-B*07:02 [1]; [10]): 0.00268 µM

Sequence: SPIVDRKGKV
- Kd (HLA-B*07:02 [1]; [12]): 0.545 µM

Sequence: SPPEVERAVL
- Kd (HLA-B*07:02 [1]; [7]): 0.0197 µM

Sequence: SSAAQRRGRI
- Kd (HLA-A*68:02; [12]): 0.051 µM

Sequence: STLAGVNVG
- IC50 (HLA-A*02:01 [2]; [15]): ≥ 105 µM

Sequence: TETKITFAL
- IC50 (HLA-A*02:01 [2]; [16]): ≥ 83.3 µM
- IC50 (HLA-A*24:02; [16]): 19 µM

Sequence: TPHSGEEHAV
- Kd (HLA-B*07:02 [1]; [12]): 0.162 µM

Sequence: TPQDNQLIYV
- Kd (HLA-B*07:02 [1]; [10]): 7.76 µM

Sequence: TQETITETA
- IC50 (HLA-A*02:01 [2]; [9]): ≥ 184 µM

Sequence: TTELRTYTI
- IC50 (HLA-A*02:01 [2]; [9]): ≥ 94.5 µM
- IC50 (HLA-A*24:02; [9]): 0.925 µM

Sequence: TTHFQRALI
- Kd (HLA-A*68:02; [12]): 0.0013 µM

Sequence: TVANNPDDK
- Kd (HLA-B*15:01; [17]): ≥ 20 µM
- Kd (HLA-A*02:01 [3]; [17]): ≥ 20 µM
- Kd (HLA-B*40:01; [17]): ≥ 20 µM
- Kd (HLA-A*69:01; [17]): ≥ 20 µM
- Kd (HLA-B*58:01; [17]): ≥ 20 µM
- Kd (HLA-B*08:01 [4]; [17]): ≥ 20 µM
- Kd (HLA-A*01:01; [17]): ≥ 20 µM
- Kd (HLA-B*27:05; [17]): ≥ 20 µM
- Kd (HLA-A*03:01; [17]): ≥ 20 µM
- Kd (HLA-B*07:02 [5]; [17]): ≥ 20 µM
- Kd (HLA-A*26:01; [17]): ≥ 20 µM
- Kd (HLA-A*11:01; [17]): 1.58 µM

Sequence: TVAWRTATLI
- Kd (HLA-A*68:02; [11]): 0.0615 µM

Sequence: VPTSRTTWSI
- Kd (HLA-B*51:01; [12]): 0.0525 µM
- Kd (HLA-B*07:02 [1]; [12]): 0.0503 µM

Sequence: WTMKILIGVI
- Kd (HLA-A*68:02; [12]): 0.184 µM

Sequence: WVMKIGIGV
- Kd (HLA-A*02:06): 0.00138 µM
- Kd (HLA-A*68:02; [11]): 0.00527 µM

Sequence: YKVASEGFQY
- Kd (HLA-A*30:02): 0.135 µM
- Kd (HLA-B*35:01; [7]): 3.92 µM

Sequence: YQLLEAVYG
- IC50 (HLA-A*02:01 [2]; [16]): 31.1 µM

Sequence: YRSGTETKI
- IC50 (HLA-A*24:02; [16]): ≥ 315 µM

Sequence: YSAPSESEGV
- Kd (HLA-A*68:02; source organism: Dengue virus 4 Dominica/814669/1981): 0.0122 µM

Sequence: YVSAGESSI
- IC50 (HLA-A*02:01 [2]; [16]): 32.7 µM
